Assay results: US20180022781A1 (INSERM INSTITUT NATIONAL DE LA SANTE ET DE LA RECHERCHE …, published 2018)
Substitutions are numbered along the chain they refer to.

T1: full-length Ty1 IN (IN1-635) fused to Gal4 activating domain (Saccharomyces cerevisiae, UniProt P0C2I7 583-1217)
T1 construct: the residue numbers of the constructs agree with it
T1 sequence: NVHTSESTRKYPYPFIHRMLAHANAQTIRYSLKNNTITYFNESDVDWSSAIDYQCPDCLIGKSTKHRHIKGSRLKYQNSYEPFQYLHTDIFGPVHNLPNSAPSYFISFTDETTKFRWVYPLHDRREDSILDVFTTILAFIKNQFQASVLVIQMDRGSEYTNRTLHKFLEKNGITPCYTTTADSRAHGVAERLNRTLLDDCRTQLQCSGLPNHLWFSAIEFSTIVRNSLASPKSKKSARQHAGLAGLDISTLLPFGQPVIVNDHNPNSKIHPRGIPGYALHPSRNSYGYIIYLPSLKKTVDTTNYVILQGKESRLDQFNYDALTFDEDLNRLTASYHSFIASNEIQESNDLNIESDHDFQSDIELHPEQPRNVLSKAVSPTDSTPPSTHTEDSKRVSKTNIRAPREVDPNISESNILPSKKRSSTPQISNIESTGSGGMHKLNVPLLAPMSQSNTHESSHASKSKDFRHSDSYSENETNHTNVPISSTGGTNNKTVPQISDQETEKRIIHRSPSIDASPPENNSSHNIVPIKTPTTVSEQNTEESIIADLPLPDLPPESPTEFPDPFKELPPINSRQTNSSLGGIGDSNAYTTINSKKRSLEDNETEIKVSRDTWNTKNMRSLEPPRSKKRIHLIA

B1: Ty1 integrase with S621 modified in A, expressed from a mutant Ty1 element (protein)
chain: T1 sequence with S621A
B2: Ty1 integrase (IN) expressed from a functional Ty1 element (protein)
chain: T1 sequence
B3: Ty1 integrase with R619 [read as R620] modified in A, expressed from a mutant Ty1his3AI element (protein)
chain: T1 sequence with R620A
B4: Ty1 integrase with M619 modified in A, expressed from a mutant Ty1 element (protein)
chain: T1 sequence with M619A
B5: Ty1 integrase with K617 modified in A, expressed from a mutant Ty1 element (protein)
chain: T1 sequence with K617A
B6: Ty1 integrase with L622 modified in A, expressed from a mutant Ty1 element (protein)
chain: T1 sequence with L622A
B7: S. pombe AC40 (AC40sp) fused to Gal4 binding domain (GBD-AC40sp) (other, UniProt P04386 1-147, looked up)
chain: MKLLSSIEQACDICRLKKLKCSKEKPKCAKCLKNNWECRYSPKTKRSPLTRAHLTEVESRLERLEQLFLLIFPREDLDMILKMDSLQDIKALLTGLFVQDNVNKDAVTDRLASVETDMPLTLRQHRISATSSSEESSNKGQRQLTVSMAAVDRSRTEISVLSDRVTDVGSVDFPGYYFDEDNIWDLDKFKKNLKVSITSLDQETMVFEISGIDASIANAFRRILIAEIPTLAFEFVYIINNTSIIQDEVLSHRIGLVPISADPDMFKWFQHPLPGQEATHTDYDTVVFSLNKKCEFNKNAATDEKDPKRLYVNSEVYSGDLIWKPQGRQEERFADNPIRVVNPDIVVAKLRPGQEIDLEAHAILGIGQDHAKFSPVATASYRLLPTIHILSPIEGEDAVKFQKCFPKGVIELEEGPDGKKQARVADVRKDTVSRECLRHPEFADKVQLGRVRDHYLFSVESTGIMKPDVLFIKSIAVLKSKCLAVKSSLQNISSD

What was measured:
[1] = biological target: S. pombe AC40 (AC40sp) (Schizosaccharomyces pombe) (UniProt O94616); assay: cell-based or functional assay
[2] = biological target: AC40 subunit of RNA polymerase III, P07703
Chain of AC40 subunit of RNA polymerase III, P07703 (P07703 whole entry, looked up, tested part not stated): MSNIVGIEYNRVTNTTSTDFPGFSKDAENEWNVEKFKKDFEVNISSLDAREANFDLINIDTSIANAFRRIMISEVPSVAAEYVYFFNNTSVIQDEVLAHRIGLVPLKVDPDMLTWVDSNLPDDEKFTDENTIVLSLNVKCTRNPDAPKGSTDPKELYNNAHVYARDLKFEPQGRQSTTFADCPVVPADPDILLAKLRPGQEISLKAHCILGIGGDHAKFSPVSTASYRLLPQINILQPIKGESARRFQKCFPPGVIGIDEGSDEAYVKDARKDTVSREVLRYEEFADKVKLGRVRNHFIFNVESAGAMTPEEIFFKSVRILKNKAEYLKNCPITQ

[3] = biological target: S. pombe AC40 (AC40sp), O94616
[4] = biological target: T1, full-length Ty1 IN (IN1-635) fused to …; assay: yeast two-hybrid
Text: (A) Two-hybrid interaction between different domains of Ty1-IN and AC40 or AC40sp. Left, Ty1 structure. Two open reading frames, GAG and POL (historically TYA and TYB), are flanked by two LTRs (black triangles). Protease (PR), integrase (IN), reverse transcriptase-RNAse H (RT/RH). The left-right arrow indicates Ty1 sequences recovered in the two-hybrid screen (2-HS) with AC40 as bait (coordinates 2706-4342 in Ty1). Ty1-IN regions fused to Gal4 activating domain (GAD) are depicted. Right, serial 10-fold dilutions of liquid cultures of cells expressing AC40 or AC40sp fused to Gal4 binding domain (GBD) and the various GAD-IN proteins were plated onto non-selective (Control) or selective (Interaction) media to detect interactions. (B) Co-immunoprecipitation of AC40 and IN-Strep. A 6×HA epitope was inserted at the end of the endogenous RPC40 gene (AC40-HA) and IN was fused with streptavidine (IN-Strep) and expressed from a galactose inducible promoter. Immunoprecipitation of protein extracts was performed with anti-HA magnetic beads coupled to IgG. […] (C) Co-immunoprecipitation of AC40 and IN expressed from a galactose inducible functional Ty1 element. Immunoprecipitation conditions are as in FIG. 3B.

Row | Molecule | PCR detection of Ty1 insertion events upstream of tG(GCC)C [2] | relative frequency of Ty1his3AI retrotransposition [2] | other results
1 | Ty1 integrase (IN) expressed from a functional Ty1 element (from UniProt P0C2I7 583-1217) (enzyme) | – | – | fraction of 5FOA^R cells arising from Ty1 integration [1]: 30 fold lower
2 | B1 | Ty1 integration upstream of a Pol III genes is severely affected in Ty1 mutants carrying mutations that abolish IN/AC40 interaction | Ty1 overall mobility decreases no more than two-fold in Ty1 mutants carrying mutations that abolish IN/AC40 interaction | –
3 | B2 | – | – | PCR pattern of Ty1 insertions upstream of tG(GCC)C [3]: In cultures expressing AC40sp, the pattern was dramatically altered, showing both a significant decrease in Ty1 integration and an apparent relaxed periodicity between hotspots; frequency of IN-dependent Ty1HIS3 integration in a rad52Δ mutant [3]: the frequency of IN-dependent integration is 2-fold lower in AC40sp cells compared to AC40 cells; genome-wide Ty1 integration profile [3]: the loss-of-interaction mutant displayed a fundamentally different profile with only a slight bias to integrate near tRNA genes
4 | B3 | – | Ty1 overall mobility decreases no more than two-fold in Ty1 mutants carrying mutations that abolish IN/AC40 interaction | –
5 | B4 | The loss of this pattern was also obtained in mutants of Ty1 in which either of the K617 or M619 residues where modified in A (alanine) | Ty1 overall mobility decreases no more than two-fold in Ty1 mutants carrying mutations that abolish IN/AC40 interaction | –
6 | B5 | The loss of this pattern was also obtained in mutants of Ty1 in which either of the K617 or M619 residues where modified in A (alanine) | Ty1 overall mobility decreases no more than two-fold in Ty1 mutants carrying mutations that abolish IN/AC40 interaction | –
7 | B6 | Ty1 integration upstream of a Pol III genes is severely affected in Ty1 mutants carrying mutations that abolish IN/AC40 interaction | Ty1 overall mobility decreases no more than two-fold in Ty1 mutants carrying mutations that abolish IN/AC40 interaction | –
8 | B7 | – | – | binding result [4]: no binding
